Starred links: 1 amine or outer side, 2 acyl side, 3 side chain; linkers in the order of their positions; H or OH if unused. Non-standard residues stand in square brackets, D forms with d. Groups on a side chain read outwards from the residue. No end group written: not given here. *: point of attachment. C18 diacid = O=C(O)CCCCCCCCCCCCCCCCC(=O)*; γGlu = O=C(O)[C@H](CCC(=O)[*:2])N[*:1]; AEEA = NCCOCCOCC(=O)O; Aib = CC(C)(N)C(=O)O
B1: SEQ ID NO: 127 (peptide)
peptide: IVLSLD[dV]PIKLK([AEEA-AEEA-γGlu-C18 diacid])QILLEQAKQK[Aib]QREQAEKNKRILERV-NH2
modifications: N-terminus assumed
SMILES: CC[C@H](C)[C@H](N)C(=O)N[C@H](C(=O)N[C@@H](CC(C)C)C(=O)N[C@@H](CO)C(=O)N[C@@H](CC(C)C)C(=O)N[C@@H](CC(=O)O)C(=O)N[C@@H](C(=O)N1CCC[C@H]1C(=O)N[C@H](C(=O)N[C@@H](CCCCN)C(=O)N[C@@H](CC(C)C)C(=O)N[C@@H](CCCCNC(=O)COCCOCCNC(=O)COCCOCCNC(=O)CC[C@H](NC(=O)CCCCCCCCCCCCCCCCC(=O)O)C(=O)O)C(=O)N[C@@H](CCC(N)=O)C(=O)N[C@H](C(=O)N[C@@H](CC(C)C)C(=O)N[C@@H](CC(C)C)C(=O)N[C@@H](CCC(=O)O)C(=O)N[C@@H](CCC(N)=O)C(=O)N[C@@H](C)C(=O)N[C@@H](CCCCN)C(=O)N[C@@H](CCC(N)=O)C(=O)N[C@@H](CCCCN)C(=O)NC(C)(C)C(=O)N[C@@H](CCC(N)=O)C(=O)N[C@@H](CCCNC(=N)N)C(=O)N[C@@H](CCC(=O)O)C(=O)N[C@@H](CCC(N)=O)C(=O)N[C@@H](C)C(=O)N[C@@H](CCC(=O)O)C(=O)N[C@@H](CCCCN)C(=O)N[C@@H](CC(N)=O)C(=O)N[C@@H](CCCCN)C(=O)N[C@@H](CCCNC(=N)N)C(=O)N[C@H](C(=O)N[C@@H](CC(C)C)C(=O)N[C@@H](CCC(=O)O)C(=O)N[C@@H](CCCNC(=N)N)C(=O)N[C@H](C(N)=O)C(C)C)[C@@H](C)CC)[C@@H](C)CC)[C@@H](C)CC)C(C)C)C(C)C
B2: SEQ ID NO: 125 (peptide)
peptide: IVLSLDVPIKLK([AEEA-AEEA-γGlu-C18 diacid])QILLEQARQK[Aib]QREQAEKNKRILERV-NH2
modifications: N-terminus assumed
SMILES: CC[C@H](C)[C@H](N)C(=O)N[C@H](C(=O)N[C@@H](CC(C)C)C(=O)N[C@@H](CO)C(=O)N[C@@H](CC(C)C)C(=O)N[C@@H](CC(=O)O)C(=O)N[C@H](C(=O)N1CCC[C@H]1C(=O)N[C@H](C(=O)N[C@@H](CCCCN)C(=O)N[C@@H](CC(C)C)C(=O)N[C@@H](CCCCNC(=O)COCCOCCNC(=O)COCCOCCNC(=O)CC[C@H](NC(=O)CCCCCCCCCCCCCCCCC(=O)O)C(=O)O)C(=O)N[C@@H](CCC(N)=O)C(=O)N[C@H](C(=O)N[C@@H](CC(C)C)C(=O)N[C@@H](CC(C)C)C(=O)N[C@@H](CCC(=O)O)C(=O)N[C@@H](CCC(N)=O)C(=O)N[C@@H](C)C(=O)N[C@@H](CCCNC(=N)N)C(=O)N[C@@H](CCC(N)=O)C(=O)N[C@@H](CCCCN)C(=O)NC(C)(C)C(=O)N[C@@H](CCC(N)=O)C(=O)N[C@@H](CCCNC(=N)N)C(=O)N[C@@H](CCC(=O)O)C(=O)N[C@@H](CCC(N)=O)C(=O)N[C@@H](C)C(=O)N[C@@H](CCC(=O)O)C(=O)N[C@@H](CCCCN)C(=O)N[C@@H](CC(N)=O)C(=O)N[C@@H](CCCCN)C(=O)N[C@@H](CCCNC(=N)N)C(=O)N[C@H](C(=O)N[C@@H](CC(C)C)C(=O)N[C@@H](CCC(=O)O)C(=O)N[C@@H](CCCNC(=N)N)C(=O)N[C@H](C(N)=O)C(C)C)[C@@H](C)CC)[C@@H](C)CC)[C@@H](C)CC)C(C)C)C(C)C
B3: SEQ ID NO: 128 (peptide)
peptide: IVLSLD[dV]PIKLK([AEEA-AEEA-γGlu-C18 diacid])QILLKQARQK[Aib]QREQAEKNKRILERV-NH2
modifications: N-terminus assumed
SMILES: CC[C@H](C)[C@H](N)C(=O)N[C@H](C(=O)N[C@@H](CC(C)C)C(=O)N[C@@H](CO)C(=O)N[C@@H](CC(C)C)C(=O)N[C@@H](CC(=O)O)C(=O)N[C@@H](C(=O)N1CCC[C@H]1C(=O)N[C@H](C(=O)N[C@@H](CCCCN)C(=O)N[C@@H](CC(C)C)C(=O)N[C@@H](CCCCNC(=O)COCCOCCNC(=O)COCCOCCNC(=O)CC[C@H](NC(=O)CCCCCCCCCCCCCCCCC(=O)O)C(=O)O)C(=O)N[C@@H](CCC(N)=O)C(=O)N[C@H](C(=O)N[C@@H](CC(C)C)C(=O)N[C@@H](CC(C)C)C(=O)N[C@@H](CCCCN)C(=O)N[C@@H](CCC(N)=O)C(=O)N[C@@H](C)C(=O)N[C@@H](CCCNC(=N)N)C(=O)N[C@@H](CCC(N)=O)C(=O)N[C@@H](CCCCN)C(=O)NC(C)(C)C(=O)N[C@@H](CCC(N)=O)C(=O)N[C@@H](CCCNC(=N)N)C(=O)N[C@@H](CCC(=O)O)C(=O)N[C@@H](CCC(N)=O)C(=O)N[C@@H](C)C(=O)N[C@@H](CCC(=O)O)C(=O)N[C@@H](CCCCN)C(=O)N[C@@H](CC(N)=O)C(=O)N[C@@H](CCCCN)C(=O)N[C@@H](CCCNC(=N)N)C(=O)N[C@H](C(=O)N[C@@H](CC(C)C)C(=O)N[C@@H](CCC(=O)O)C(=O)N[C@@H](CCCNC(=N)N)C(=O)N[C@H](C(N)=O)C(C)C)[C@@H](C)CC)[C@@H](C)CC)[C@@H](C)CC)C(C)C)C(C)C
B4: SEQ ID NO: 13 (peptide)
peptide: FTLSLDVPTKIK([AEEA-AEEA-γGlu-C18 diacid])QILFKQQKQKKERQQAEKNKQLLEQI-NH2
modifications: N-terminus assumed
SMILES: CC[C@H](C)[C@H](NC(=O)[C@H](CCC(N)=O)NC(=O)[C@H](CCC(=O)O)NC(=O)[C@H](CC(C)C)NC(=O)[C@H](CC(C)C)NC(=O)[C@H](CCC(N)=O)NC(=O)[C@H](CCCCN)NC(=O)[C@H](CC(N)=O)NC(=O)[C@H](CCCCN)NC(=O)[C@H](CCC(=O)O)NC(=O)[C@H](C)NC(=O)[C@H](CCC(N)=O)NC(=O)[C@H](CCC(N)=O)NC(=O)[C@H](CCCNC(=N)N)NC(=O)[C@H](CCC(=O)O)NC(=O)[C@H](CCCCN)NC(=O)[C@H](CCCCN)NC(=O)[C@H](CCC(N)=O)NC(=O)[C@H](CCCCN)NC(=O)[C@H](CCC(N)=O)NC(=O)[C@H](CCC(N)=O)NC(=O)[C@H](CCCCN)NC(=O)[C@H](Cc1ccccc1)NC(=O)[C@H](CC(C)C)NC(=O)[C@@H](NC(=O)[C@H](CCC(N)=O)NC(=O)[C@H](CCCCNC(=O)COCCOCCNC(=O)COCCOCCNC(=O)CC[C@H](NC(=O)CCCCCCCCCCCCCCCCC(=O)O)C(=O)O)NC(=O)[C@@H](NC(=O)[C@H](CCCCN)NC(=O)[C@@H](NC(=O)[C@@H]1CCCN1C(=O)[C@@H](NC(=O)[C@H](CC(=O)O)NC(=O)[C@H](CC(C)C)NC(=O)[C@H](CO)NC(=O)[C@H](CC(C)C)NC(=O)[C@@H](NC(=O)[C@@H](N)Cc1ccccc1)[C@@H](C)O)C(C)C)[C@@H](C)O)[C@@H](C)CC)[C@@H](C)CC)C(N)=O
B5: SEQ ID NO: 124 (peptide)
peptide: IVLSLDVPIKLK([AEEA-AEEA-γGlu-C18 diacid])QILLKQARQK[Aib]QRAQAEKNKRILERV-NH2
modifications: N-terminus assumed
SMILES: CC[C@H](C)[C@H](N)C(=O)N[C@H](C(=O)N[C@@H](CC(C)C)C(=O)N[C@@H](CO)C(=O)N[C@@H](CC(C)C)C(=O)N[C@@H](CC(=O)O)C(=O)N[C@H](C(=O)N1CCC[C@H]1C(=O)N[C@H](C(=O)N[C@@H](CCCCN)C(=O)N[C@@H](CC(C)C)C(=O)N[C@@H](CCCCNC(=O)COCCOCCNC(=O)COCCOCCNC(=O)CC[C@H](NC(=O)CCCCCCCCCCCCCCCCC(=O)O)C(=O)O)C(=O)N[C@@H](CCC(N)=O)C(=O)N[C@H](C(=O)N[C@@H](CC(C)C)C(=O)N[C@@H](CC(C)C)C(=O)N[C@@H](CCCCN)C(=O)N[C@@H](CCC(N)=O)C(=O)N[C@@H](C)C(=O)N[C@@H](CCCNC(=N)N)C(=O)N[C@@H](CCC(N)=O)C(=O)N[C@@H](CCCCN)C(=O)NC(C)(C)C(=O)N[C@@H](CCC(N)=O)C(=O)N[C@@H](CCCNC(=N)N)C(=O)N[C@@H](C)C(=O)N[C@@H](CCC(N)=O)C(=O)N[C@@H](C)C(=O)N[C@@H](CCC(=O)O)C(=O)N[C@@H](CCCCN)C(=O)N[C@@H](CC(N)=O)C(=O)N[C@@H](CCCCN)C(=O)N[C@@H](CCCNC(=N)N)C(=O)N[C@H](C(=O)N[C@@H](CC(C)C)C(=O)N[C@@H](CCC(=O)O)C(=O)N[C@@H](CCCNC(=N)N)C(=O)N[C@H](C(N)=O)C(C)C)[C@@H](C)CC)[C@@H](C)CC)[C@@H](C)CC)C(C)C)C(C)C
B6: SEQ ID NO: 126 (peptide)
peptide: IVLSLD[dV]PIKLK([AEEA-AEEA-γGlu-C18 diacid])QILLEQAKQK[Aib]QRAQAEKNKRILERV-NH2
modifications: N-terminus assumed
SMILES: CC[C@H](C)[C@H](N)C(=O)N[C@H](C(=O)N[C@@H](CC(C)C)C(=O)N[C@@H](CO)C(=O)N[C@@H](CC(C)C)C(=O)N[C@@H](CC(=O)O)C(=O)N[C@@H](C(=O)N1CCC[C@H]1C(=O)N[C@H](C(=O)N[C@@H](CCCCN)C(=O)N[C@@H](CC(C)C)C(=O)N[C@@H](CCCCNC(=O)COCCOCCNC(=O)COCCOCCNC(=O)CC[C@H](NC(=O)CCCCCCCCCCCCCCCCC(=O)O)C(=O)O)C(=O)N[C@@H](CCC(N)=O)C(=O)N[C@H](C(=O)N[C@@H](CC(C)C)C(=O)N[C@@H](CC(C)C)C(=O)N[C@@H](CCC(=O)O)C(=O)N[C@@H](CCC(N)=O)C(=O)N[C@@H](C)C(=O)N[C@@H](CCCCN)C(=O)N[C@@H](CCC(N)=O)C(=O)N[C@@H](CCCCN)C(=O)NC(C)(C)C(=O)N[C@@H](CCC(N)=O)C(=O)N[C@@H](CCCNC(=N)N)C(=O)N[C@@H](C)C(=O)N[C@@H](CCC(N)=O)C(=O)N[C@@H](C)C(=O)N[C@@H](CCC(=O)O)C(=O)N[C@@H](CCCCN)C(=O)N[C@@H](CC(N)=O)C(=O)N[C@@H](CCCCN)C(=O)N[C@@H](CCCNC(=N)N)C(=O)N[C@H](C(=O)N[C@@H](CC(C)C)C(=O)N[C@@H](CCC(=O)O)C(=O)N[C@@H](CCCNC(=N)N)C(=O)N[C@H](C(N)=O)C(C)C)[C@@H](C)CC)[C@@H](C)CC)[C@@H](C)CC)C(C)C)C(C)C

target: human corticotropin-releasing factor 2α (CRF2 α receptor) (human), Q13324; experiment: cell-based or functional assay
Sequence (Q13324 20-411): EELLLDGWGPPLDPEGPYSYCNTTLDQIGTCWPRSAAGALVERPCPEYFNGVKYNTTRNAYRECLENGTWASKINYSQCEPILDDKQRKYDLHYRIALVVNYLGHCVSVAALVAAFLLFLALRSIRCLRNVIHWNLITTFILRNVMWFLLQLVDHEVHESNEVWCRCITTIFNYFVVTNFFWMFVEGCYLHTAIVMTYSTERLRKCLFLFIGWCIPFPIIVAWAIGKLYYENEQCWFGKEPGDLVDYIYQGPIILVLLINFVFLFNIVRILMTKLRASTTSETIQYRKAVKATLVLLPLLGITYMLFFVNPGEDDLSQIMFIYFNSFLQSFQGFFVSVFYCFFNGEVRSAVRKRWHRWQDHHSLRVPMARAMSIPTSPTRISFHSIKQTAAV

| Binder | EC50 [nM], 0% HSA | EC50 [nM], 0.1% HSA |
| --- | --- | --- |
| B1 | 0.16 nM | 5.14 nM |
| B2 | 0.47 nM | 19.9 nM |
| B3 | 0.64 nM | 20.1 nM |
| B4 | 0.98 nM | 64.1 nM |
| B5 | 0.11 nM | 4.37 nM |
| B6 | 0.22 nM | 5.59 nM |

— patent US12679878B2, “CRF2 receptor agonists and their use in therapy” (SANOFI, priority 2020, dated 2026)
